These results are taken from article PMC8897509 (Nature Communications, 2022).

In assay [1] the target is T1, ubiquitin (UniProt P0CG48 1-76).
T1 construct: ubiquitin, the mature protein; cloned into pET-3a, expressed untagged; Some pull-downs used a Cy3-labelled variant with an added N-terminal Met-Cys; also called Ub^R; Ub^D; source: E. coli BL21 (DE3), purified (HiTrap SP HP, Superdex 75)
The assay can be described thus: crystal structure; UbArk2C fusion alone, 2.5 Å, PDB 7R70; crystals from 1.6 M Na3Citrate, 16 °C; two copies in the asymmetric unit. As to conditions: both partners purified.

Assay [2] concerns the target T1, ubiquitin. The experiment in a line: pull-down; GST-Ark2C proteins immobilised on Glutathione Sepharose mixed with ubiquitin; PBS pH 7.4, 0.2% Tween 20, 2 mM DTT, 4 °C, 30 min; washed four times with PBS. As to conditions: both partners purified.

B1: Ark2C RING domain (residues 255-346), as it stands in the UbArk2C fusion (domain or fragment, human, UniProt Q6ZSG1 255-346, looked up)
chain: GAVQNTIERFTFPHKYKKRRPQDGKGKKDEGEESDTDEKCTICLSMLEDGEDVRRLPCMHLFHQLCVDQWLAMSKKCPICRVDIETQLGADS
notes: Ark2C (RNF165), human, RING domain, residues 255-346; Used for the pair rows of the Ark2C part of the fusion m2 (structures and cross-links); also called RNF165; source: E. coli BL21 (DE3), purified, as part of the UbArk2C fusion
Take B1: in assay [1], the binding result was “binds”.

B2: GST-Ark2C^KK/AA (Lys271 and Lys272 to alanine) (domain or fragment, human, UniProt Q6ZSG1 255-346, looked up)
chain: GAVQNTIERFTFPHKYAARRPQDGKGKKDEGEESDTDEKCTICLSMLEDGEDVRRLPCMHLFHQLCVDQWLAMSKKCPICRVDIETQLGADS
notes: Ark2C (RNF165), human, RING domain, residues 255-346; The functional row uses this molecule, although the activity assays were done with the protein after cleavage of GST; source: E. coli BL21 (DE3), immobilised on Glutathione Sepharose resin; not shown: GST, N-terminal, kept
With B2, the binding result in assay [2] was “binds”.

B3: GST-Ark2C-ΔAcidic (Δ283-291) (domain or fragment, human, UniProt Q6ZSG1 255-346, looked up)
chain: GAVQNTIERFTFPHKYKKRRPQDGKGKKEKCTICLSMLEDGEDVRRLPCMHLFHQLCVDQWLAMSKKCPICRVDIETQLGADS
notes: Ark2C (RNF165), human, RING domain, residues 255-346, without most of the acidic residues of the β3-RING loop; source: E. coli BL21 (DE3), immobilised on Glutathione Sepharose resin; not shown: GST, N-terminal, kept
As for B3, the binding result in assay [2] is “binds”.
